{"source": "patent US20170349943", "about": "“METHODS FOR DETECTING ENHANCED NMDA RECEPTOR FUNCTION AND USES THEREOF” (INOVA HEALTH SYSTEM, published 2017)", "target": "T1, Elk-1 (Homo sapiens, UniProt P19419 P19419:1-428)", "T1 sequence": "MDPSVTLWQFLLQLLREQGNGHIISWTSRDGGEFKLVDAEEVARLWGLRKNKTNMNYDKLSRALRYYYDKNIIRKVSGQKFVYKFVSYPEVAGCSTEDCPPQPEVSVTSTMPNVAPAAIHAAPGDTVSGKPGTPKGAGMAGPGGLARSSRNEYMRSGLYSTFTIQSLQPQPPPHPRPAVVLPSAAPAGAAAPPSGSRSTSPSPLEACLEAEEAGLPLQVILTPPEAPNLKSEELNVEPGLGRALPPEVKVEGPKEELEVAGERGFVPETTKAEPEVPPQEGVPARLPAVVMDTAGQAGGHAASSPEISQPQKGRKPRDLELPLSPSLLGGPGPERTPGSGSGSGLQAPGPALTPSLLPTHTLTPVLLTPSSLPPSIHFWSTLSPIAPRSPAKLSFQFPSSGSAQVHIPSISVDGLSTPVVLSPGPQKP", "assay": "EMSA; bound to a greater extent than G allele; 50 mM HEPES pH 7.5, 10 mM MgCl2, on ice 1 h, then Elk-1 antibody", "settings": "tags: recombinant human Elk-1, Sigma Aldrich", "description": "FIG. 2 depicts binding of recombinant Elk-1 protein (an ETS transcription factor) to double stranded DNAs containing the single nucleotide polymorphism (SNP) rs3764030 variant A allele from the human GRIN2B gene promoter. Double-stranded DNA targets (Methods) were sequentially incubated with 1 μg recombinant human Elk-1 protein in EMSA buffer, then incubated with the Elk-1 antibody 20 minutes. […] Samples were electrophoresed through 6% polyacrylamide gels in HEPES buffer pH 6.3, without polydldC. The gel was then stained with the SYBR Green to visualize DNA and SYPRO Ruby for protein bound to DNA. The stained gel was scanned using G:BOX (Syngene, US) for imaging. Elk-1 bound to DNA is indicated by the arrow.\nThe complementary pairs of DNA oligonucleotides were first annealed in Biorad C1000 thermocycler with 1° C./1 min decreasing from 95° C. to 20° C. The annealing buffer composition was 10 mM Tris-HCl pH 8.0, 1 mM EDTA and 50 mM NaCl. The annealed dsDNA was then incubated with 1 μg recombinant human Elk-1 protein (Sigma Aldrich, US) on ice for 1 hour in EMSA buffer, then incubated with the Elk-1 antibody (SC-355)(Santa Cruz Technology, US) 20 minutes in room temperature. The compositions of EMSA buffer was 50 mM HEPES pH7.5, 10 mM MgCl₂, 5% glycerol, 1 mM DTT, 0.3% BSA and 1 mM EDTA. […]", "data": [{"binder": "GRIN2B promoter rs3764030 A allele probe (dsDNA) DNA 1: CATCTCCGGGGAACACGCGAA DNA 2: TTCGCGTGTTCCCCGGAGATG", "values": [{"measurement": "binding result", "value": "binds"}]}]}
